Assay results from the NTF2 design screens of Basanta et al. (2020).

Test: protease stability score; higher = more stable; yeast display proteolysis, trypsin and chymotrypsin;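 further: relative to predicted unfolded state with 0 unfolded-like and 1 meaning tenfold more protease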

Point of comparison: “TEFEQEVERMIRMWRHLYETGDEKTLSHLVDPNVRVIVDGKHIHGREQVVNEIRRAHIVDDFEIRLEDTKYFEGRAVFTGIIREHGHVDGRTVHKSTKVEIDVVKVDGQWLIHRINFH”, protease stability score 1.54. Against it:
- DEEDEESHRLMRETIHLLLTGDEEVWAQLADPDVRVLFNGVDYHGREEFLRIWHHMVKEIRVDKHEIKTIEVQGDKVLSDIRMHVEFNGKRTKVRVNLRLQSINGRTKYLSIHIH — lower, 1.21
- SETEEEARKMIELLVEAWLTGDEHTLERMLDPHVKIIIDGRELHGWKVLAERIKHLRYEHFEFELHSVETQGDKIIIRGIVRSDLRVGDKEEHTHLEVIIIITKVNGRWVVHSIEIR — higher, 1.68
- DEDEHHIRTALEYLRHATETGDEELMSEMADPDVRVHVNGVELHGMESYEKWLHDVLREIRIRHVHLEDSKVIGDFVRLDLRVHTEVNGRHFRHQTILISFKYNGQWRIKSVIWR — lower, 1.37
- DEIYEDIKHIVDLLSHAHETGDEHELKHLADPNVKWIINGVELVGWEDFRKLLEHLRHKRVHMDPRDVKRQGDYIHVTAELRFTGVFNGREREETFEVHLHMKKVNGRWLLTSVRVK — lower, 1.48
- SHVEQESREIFEQIVRNLKTGDEDLLTELLDPNTLHIVNGVEIHGMEIVAKFLLDWRRKVKNIRIHDEEERHIEIYGDKVISHVDMDGIVNGRRVRRENIWIAEKVDGRWVIREVEVR — higher, 1.94
- DEDSYNSHRALEDLWRDLETGDEENLNKLADPHARVKQGDKEFHGMHHWIHFLESLGITKVHVRIHRIQTQGDKVRIVGEIEFNGRRHHSIIFIEKINGVWLVHKMEIK — lower, 1.41
- SEEDEADHELVQWMLEILQTGDEETFRTFADPSTRHISHIDGKEMHIHGRESASEVLLTTWKELGVDVFHLHQYRYFNGRVDIEFELHQGNKTIELHFHYQIINGRLKRIEIRVHHE — lower, 1.14
- DELEEELETAERISHEVLDTGDERIWSKLIDPNARLQIGDKEYHGREEVQRFFLEFGFKVSDIHSVKVQGDKIHVDTRSRVDGKEIELQLNSEKINGKWVLRHIHVWKR — lower, 1.28
- DEEEEWVRHLAHLFFEWYLTGDWQRFSELMDPTTLSVYGDKHFHGMELVVEFLSRSLDEMRIEHVEFKDIRVYNGVAHVHLRFEGKIGDKRTETDSRLLLYVVDGRIKHVKFIIK — lower, 1.39
- DEEEDRLRRLAKTLLENWVTGDEEMHQRFADPNTRLNVDVDGKEIHRHGREEMLKDLRHELERVDHWELRLRDMKIFDGVVDIDGELILNINGKVIRQEVRIIMVIVNGRLRSVHFQVH — lower, 1.26
- SEEEEQSRKIFRLLYKVIETGDEDIFTKLFDPHARLIYNGKEYIGWEEAVQVLRHIRIDREELSVVRINNVNGQVHIHSVSRMDGEINGVEHHTRVELNFIVIKINGRWVIHTWEIRID — higher, 2.35
- DEEEEHFKWLVKLIFDAYLTGDEEVLYERADPNVRIDFNGVELHGREEMQRHLEHLMKKFKGLRIELKHFHIQGDKMFFQTEYRYNGKTVEARLFFDVVNGRLKRIIIEHR — lower, 1.48
- SEDRKLAEILVKITMDILHTGDEEEWLKLLDPHTRIDFDGRDMHGREFFMKVFRDWGIDNIEVHLHDVKVQGDFLDINVSVHINGRKIDHRLIVEKIDGRWIIREFEVR — higher, 1.58
- SEDQEEAEHVFEQWIRVLTTGDEETAHKMADPNTRMHFNGKDIHGMDTIAKEFHDLGITLQSIRMRHVERQGDKIHIHSRRTFEVNGVHLNTEVHHSLVKIDGRWTFQHTYVH — lower, 0.086
- SESEKASEIATKELEEVEKTGDEKTIEDYMDPNTRLHINGVDLHGMENFLEFWHRLLRKLGFESTSFHLKSSRIQGNKIKMHSIIHVKQGEKDISFDVEYIALKFNGRWIEESMSSK — lower, 1.32
- SHEEEESTKVAEDWLRHVLTGDEEDMTKLADPNTKVDVGDKHMHGMRSYWEFLHEIRIKHVHVHRIHIELVNGRAFIIIDGEIHEEVGDKEVEIKSRFILIVEKVNGRWIIREVRYQRI — the same, 1.54
- DEMQEVLERFAHEWFHNLHTGDEDTLLKLADPNVRVHVGDKDLIGRELWKEELHKMKGLKLELHDYHAINGRIHLDVTQKFNGKEVELEMDIIVVNGRVKEIRHQRR — lower, 1.06
- SEDEHFLERFLKLFLHAYETGDEDFIKHLLDPHTRIDIHIGDKTHHLHGRDEMSKLHRKLGAKVSRHRDSNMDIQGDKATSHIHGVEYVNGREIRIDIVLIMRKVDGRWVIESMIFIFH — lower, 1.25
- DESHEHIRFWAEIYIRIFETGDWDEMSRLLDPHYRLIQGDKHIVGRERALDHIDKEIKELRIHHIHIKDVKTQGDYVRIDGHVNYNVGDKILRFDFHIKLLVVDGKIKHSEERVR — lower, 1.28
- SELHEEAEELTEKIIRILLTGNEHFFSELVDPDVRTNVDGKELHGREEALRKFEEMRRKLGYDRVRVELRKYTVFDGRVEVVTELNVNGRRLEYIWRMHKVDGRWSLHIWEIR — higher, 2.65
- SELDDHMRRIMDHYIEDLVTGNEDRQQKLADPNVRVIIWQGDKIYHLHGREEWVKALRELRWHEIHVRHREPVNGKTHVDTEVDGEINGRRHRHRVHLTLLVVDGKVKLVEFDHH — lower, 1.37
- SEDEEFFKKALDLVFEYNRTGDERSMNELADPHVKVDINGVTLHGWEEFSRHLRELRLKTFKLDDLDSQGDKIITKGVFHHHINGRTIDLDVIIFTRKINGRWVLEKVEFK — lower, 1.35
- THEDEIFKEFERILREVDETGDEHDIKQYLDPNTKFHINGRDLIGMKVVTEFWRELLQKYKNLTINRRIRHVEVYNGRVHIHGHLSLHYGDKDIRVDVHIQAIKIDGRWHLQQEHYL — lower, 1.15
- DEIVEMVREIAEEILHAELTGDEDKFKKLIDPNVRLQINGKDIHGMEDFRKWNEEWRIHHIEVKHLDIFEGHSRMDGKLDGTINGQRRNLKTILEIKVVDGRVKEITIHVL — lower, 1.12
- DENEQEARKAIEELIHNRETGDEQRMSELLDPHTRIDYNGVEVHGRHYLLKLLRRIDHSRFNLRRLDIQGEKIIMEGELELDVNGVKIRIKLTEIILKVNGRWILHSSRIE — higher, 1.95
- DEETRDFDVAFMYFILFEKTGDERELLELLDPDARMVVGDKRRVGRESVLHFMREHLRTLGFKHVEDIELHDFKVYDGRIELDIRVRGRVNGKTHTLTYLMIAHKVDGRWFIHSLEVR — higher, 2.14
- DHDDEESKHWLEFYLEIVQTGDEDSHKRLADPNTRLHIDGQVMHGREFMTMWFRHLVSKFKNARVEIRLRDTRKINGRVELDVELIFRVGDKEERREVQIFADKVDGRWHIKEFVVH — higher, 2.22
- TESEKLSRIVIKLLIESTRTGDERILHELVDPNVKLNVNGRELHGWEEMVKIHKQWRFHDLEVDSVRLIGDKMEIDTTIHGTIDGQKDNIDVRIILEKVNGRWVLREVHIK — higher, 1.58
- HEEEELERTILELVLHYLKTGDEHFMKNMADPNARSTIGDKDLHGREWMSEVWKRIKNVRIEIDRVDMINGVVHLHITVEYNGRRTHLTLHAEKVDGRWIIRELRVE — higher, 1.61
- SEDEESLKKFIELLFHSLHTGDWKDIHKNLDPHVRIEFNGQELHGREELIELIEELMKRFDHIHFRFRDVRIYGNKAVLETELELRVGDKSSRIDVTIIIEKVNGRWIIRRLHFK — higher, 2.48
- SEEEESWRRIAEEELRIRKTGDEDRFRELHDPSVKIDWNGQIIVGWEELHEILRHIAERYPNLRFEVTHSDVIDGRVHIDGRLNVNGVTLEFHIESVIVNGRTKSIRIEVR — lower, 0.524
- DEDEKEIAKTVKELVHSLRTGDWEKITRMADPHVKIHVNGRELHGWEEMRRFEEEEFKRLGFKHRDVELKDFRYQGNFAHVHGNLVVEFNGVEEEIDQHIIILKVNGRWLITEIRHH — lower, 1.31
- SETREDTRELVESFLNALRTGDEDLLRRLMDPHVKVYFNGREFHGRELATRVESHLRVHDIDVRDMRIIGDKVIIDLQVDGEWDGVRFHRETELHTQKVNGRWFIREIRIH — higher, 2.23
- SHHEEHLKRLESFLLEATDTGDEDFLTKLIDPHVKLDIDGVELHGREDWLKYFLDLGVDHVRITSSRDINGRLHLTTRMHIGDKITETRVHSEKFDGQWVIKEIIIH — lower, 0.823
- HEEKHEVQRFLEMLIELLVTGNEEILEHLADPHVRLEIDGRHFHGWKEFTRQYSELLKKLGADHVDMKIHEVHIIGDKVFIRGTDEFRVGDKTERKESHWVLLKVDGRWFIHSVKIG — higher, 1.99
- SENEKRMRELAEIILISWWTGDEDTLKDLADPRTRVNIDGVDLIGMELTSEFLERHLREMRIHSIELESITVIDGQAHIHLEVDTVVNGVRIRTKIHILVVTVDGRLKSEHYHRR — lower, 0.446
- DEEEHLMREALNTFMRTLETGDERQLNELLDPDVRSRVDGQDLHGREHVVRLFEEFRRQARIHHVDVHHMDVIGDWIRVELRVDIRIGDKLYTYKKHIVALKVDGRWFMHRVEIH — lower, 0.773
- DDIKEETDHLVDLLMEDIITGNERRLSHLADPNVRFTVGDWHSHGRKEMVEALRFTLDRADHVEYQPHRIENQGDKATAVIRVKLEYNGRTEEFRLIFTMEKIDGKWIVHKIFYR — lower, 0.976
- SEKEEQAFRLFKDIVRSMKTGDEDRLHELFDPNVRMDFNGVESHGRELALEVIRIVWREIRIKNIEVHHIEVIGNYVRIDSRLDGRYDGRRIILEMHVQLVKVDGQWIVHNIEIK — higher, 2.12
- SEDETIALEFLKNWLRDLKTGNEEALSKLLDPNARMVFNGKEHHGREILLDIIKHFVERIDHFNSLHVHDIKIQGDKVHMDLRLIGHVDGREVEHRIHMVIIKYDGRWINQVEEIE — lower, 1.16
- DEKREESERALNHLFKSMLTGDEEDVRKLADPHAKFIINGRSDIGRESVSHHWHRLWRELGVKHLDVRSFRVYDGRVDSKTRVEIGDKEHEMEVYIVKVNGRWHIEELEFR — lower, -0.12
- SEEDKIVHEMMERLLKNWQTGNWEEIEKLFDPNAKLLVDGVELHGREEMSRHWEEKLNQIDHLRIRIRDYRYFDGRLRVEGEEIHYVNGKDITREVEIRLQVINGVVESIEFHRR — lower, 1.42
- EEEEKVEHDLLRLFAEALSTGNEHIMAELLDPHVRIIVNGKHNIGRETRKTFIEHIRVRSEDVRIRTIEVQGDKIITDSEMDIILDFDGVRTTTTVEVQIIIWKYNGKWYIKMVKFK — lower, 1.36
- SEEEKEVQEYLERSIKDIRTGDEDELRRQLDPNYKLDVNGQKHIGMELWLKILSREVKEIRIDHVERHIEVINGRIDVKGELILNFNGREFRHHFEIHATKFNGRWVVDSMRVE — lower, 1.15
- DETSREEEEHARLWTHAWLTGDEELFKKLADPHVKTEIDGRDLIGRDEMTRMFHDLLRELGVKHSTIEEIHIVNGRVEIRISIEVDGRPIKVRIHVEFFNGRVQRIQIRYE — lower, 0.903
- DEDDELMKRFVDLLLEQLQTGDWRYIARMVDPHVRSDVDIDGVHLKYHGREMYVKLFTDLGAKHMELKHIEVQGDKADIHSHVHFDGQEREIIIYSFKVNGRWRTKRLEVRTI — lower, 0.932
- DDESEHSMKVFRFWAEARETGDEDTLTRLLDPHARLIQGDKHIIGREEWTRIIKERREQYGVKHIHFHIQDMRIFNGRVHLKVHYEIKFDGQSVTIDSEIIITKVDGRWYFESETKR — lower, 1.11
- DEDMREAVKIAHRWLQHMTTGDEESIQSLADPHTKILFNGRELHGRHVITHLIREIRIKYTHLEHRDWRVVDGQLHLDFREDLRIEFDGQVRRIEIESHFMIIKINGRWFVHEVHLR — lower, 0.636
- DDEDRKLKHLIELLVHWFLTGDEDALKELADPNTKFDIGDKHYHGMEIVQEIWKRHLEEIRIQHVEIRHVEIQGNKTDITGELHGQIGDKHIRSEVRIHLNIINGRVRSMWFIIH — higher, 2.49
